Targets include F1 Δ-som; F2 Δ-som; F1,2,3 Δ-som; F3 Δ-som.
Common to all, as to assay: NMR titration; ligand-observed 19F 1D; 0.15 mM fluorinated peptide constant, 15N b'x titrated (ratios 1:4 to 2.5:1); 310 K; 20 mM sodium phosphate pH 7.0, 50 mM NaCl, 5% D6-DMSO, 5% 2H2O, 0.05% sodium azide

The Kd is the constant that tells how readily two partners part at equilibrium.

“human protein disulphide isomerase (hPDI) fragment b'x (domain or fragment)”: the Kd with F1 Δ-som came out at 109 µM. Also, the Kd with F2 Δ-som came to 27 µM. In the experiment with F1,2,3 Δ-som, the KD tracked on the F1 (Phe6) 19F resonance was determined as 108 µM, the KD tracked on the F2 (Phe7) 19F resonance was 33 µM, the KD tracked on the F3 (Phe11) 19F resonance stood at 45 µM and the Kd was determined as 62 µM. Besides, in the experiment with F3 Δ-som, the Kd came out at 97 µM.

(Values after PMC4726260, “Combined ligand-observe ^19F and protein-observe ^15N,^1H-HSQC NMR suggests phenylalanine as the key Δ-somatostatin residue recognized by human protein disulfide isomerase” (Scientific Reports, 2016).)
